Assays:
hANGPTL3(17-169)-mFc [1] = molecular target: T1, hANGPTL3(17-169)-mFc (human); experiment: SPR Biacore, antigen captured, 25C, pH 7.4, HBS-EP
T1 construct: also called N-terminal coiled-coil domain of hANGPTL3 with a C-terminal mouse Fc fusion
T1 chain: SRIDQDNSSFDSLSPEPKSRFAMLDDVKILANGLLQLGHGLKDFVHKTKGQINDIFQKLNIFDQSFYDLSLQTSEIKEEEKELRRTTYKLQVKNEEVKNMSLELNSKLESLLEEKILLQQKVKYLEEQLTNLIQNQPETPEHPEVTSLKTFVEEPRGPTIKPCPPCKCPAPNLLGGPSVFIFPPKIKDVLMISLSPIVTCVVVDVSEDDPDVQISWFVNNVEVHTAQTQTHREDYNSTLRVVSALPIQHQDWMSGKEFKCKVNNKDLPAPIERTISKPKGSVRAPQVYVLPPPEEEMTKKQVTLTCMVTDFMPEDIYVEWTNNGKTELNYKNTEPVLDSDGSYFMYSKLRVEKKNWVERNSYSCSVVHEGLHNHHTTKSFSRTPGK
Method: (§1) All kinetic binding experiments were performed at 25° C. or 37° C. on a BIACORE™ T200 label-free molecular interaction instrument (GE Healthcare) using a CM5 sensor chip. Briefly, an antigen capture surface was generated by covalently coupling either an anti-mouse IgG-specific antibody (anti-mFc; GE Healthcare; catalog #BR-1008-38) or an anti-pentahistidine-specific antibody (Qiagen; catalog #34660) to the surface of a CM5 sensor chip using a standard amine coupling method.

hANGPTL3(17-460)-His [2] = molecular target: T2, hANGPTL3(17-460)-His (human, UniProt Q9Y5C1 17-460); experiment: SPR Biacore, antigen captured, 25C, pH 7.4, HBS-EP
T2 construct: Bought protein (R&D Systems); also called full-length mature human ANGPTL3 with a C-terminal decahistidine tag; Human ANGPTL3 (17-460)-His
T2 sequence: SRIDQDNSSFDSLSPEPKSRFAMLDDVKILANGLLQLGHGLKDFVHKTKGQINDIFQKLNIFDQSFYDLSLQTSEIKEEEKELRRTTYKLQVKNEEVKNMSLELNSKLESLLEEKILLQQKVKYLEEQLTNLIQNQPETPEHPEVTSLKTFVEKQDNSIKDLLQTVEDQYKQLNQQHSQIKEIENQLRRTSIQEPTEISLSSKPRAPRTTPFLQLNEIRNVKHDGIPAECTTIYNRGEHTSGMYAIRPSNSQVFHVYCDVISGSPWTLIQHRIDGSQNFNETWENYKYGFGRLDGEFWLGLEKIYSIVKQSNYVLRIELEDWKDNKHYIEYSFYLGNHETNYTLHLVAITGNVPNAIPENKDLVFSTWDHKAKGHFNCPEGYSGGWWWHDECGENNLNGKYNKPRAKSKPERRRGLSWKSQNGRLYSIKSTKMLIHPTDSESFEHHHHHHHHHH
Method: as §1

hANGPTL3(17-460)-His [3] = molecular target: T2, hANGPTL3(17-460)-His; experiment: SPR Biacore, antigen captured, 25C, pH 7.2, PBSP
Method: as §1

MfANGPTL3(17-170)-mmH [4] = molecular target: T3, MfANGPTL3(17-170)-mmH (Macaca fascicularis); experiment: SPR Biacore, antigen captured, 25C, pH 7.2, PBSP
T3 construct: also called N-terminal coiled-coil domain of ANGPTL3 from Macaca fascicularis with myc-myc-hexahistidine tag; Monkey ANGPTL3 (17-170)-mmH
T3 chain: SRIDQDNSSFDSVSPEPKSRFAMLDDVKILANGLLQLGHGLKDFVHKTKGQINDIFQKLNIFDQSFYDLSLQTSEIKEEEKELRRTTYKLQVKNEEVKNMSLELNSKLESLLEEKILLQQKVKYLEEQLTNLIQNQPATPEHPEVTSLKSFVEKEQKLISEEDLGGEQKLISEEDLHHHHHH
Method: as §1

hANGPTL3(17-170)-His [5] = molecular target: T4, hANGPTL3(17-170)-His (human, UniProt Q9Y5C1 17-170); experiment: SPR Biacore, antigen captured, 25C, pH 7.2, PBSP
T4 construct: also called N-terminal coiled-coil domain of hANGPTL3 with a C-terminal hexahistidine tag; Human ANGPTL3 (17-170)-His
T4 sequence: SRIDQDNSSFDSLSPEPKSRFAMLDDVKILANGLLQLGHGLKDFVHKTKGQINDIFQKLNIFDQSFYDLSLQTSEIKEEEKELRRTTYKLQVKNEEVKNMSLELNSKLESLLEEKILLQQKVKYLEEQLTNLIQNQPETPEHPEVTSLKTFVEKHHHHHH
Method: as §1

hANGPTL3(17-169)-mFc [6] = molecular target: T1, hANGPTL3(17-169)-mFc; experiment: cell-based or functional assay
mANGPTL3(17-240)-His = molecular target: T5, mANGPTL3(17-240)-His (Mus musculus, UniProt Q9R182 17-240); experiment: cell-based or functional assay
T5 sequence: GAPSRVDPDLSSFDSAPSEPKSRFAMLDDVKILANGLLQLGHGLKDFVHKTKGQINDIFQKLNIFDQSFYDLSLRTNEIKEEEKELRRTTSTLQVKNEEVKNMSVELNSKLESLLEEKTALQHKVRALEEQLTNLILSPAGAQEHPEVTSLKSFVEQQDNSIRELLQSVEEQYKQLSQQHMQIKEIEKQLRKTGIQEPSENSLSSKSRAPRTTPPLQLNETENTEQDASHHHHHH

hANGPTL3(17-460)-His [7] = molecular target: T2, hANGPTL3(17-460)-His; experiment: SPR Biacore, antigen captured, 37C, pH 5.75, PBSP
Method: as §1

MfANGPTL3(17-170)-mmH [8] = molecular target: T3, MfANGPTL3(17-170)-mmH; experiment: SPR Biacore, antigen captured, 37C, pH 5.75, PBSP
Method: as §1

hANGPTL3(17-170)-His [9] = molecular target: T4, hANGPTL3(17-170)-His; experiment: SPR Biacore, antigen captured, 37C, pH 5.75, PBSP
Method: as §1

Kd (hANGPTL3(17-169)-mFc [1]): 0.659 nM | koff (hANGPTL3(17-169)-mFc [1]): 0.000383 s⁻¹ | kon (hANGPTL3(17-169)-mFc [1]): 582000 M⁻¹ s⁻¹ | t1/2 (hANGPTL3(17-169)-mFc [1]): 30 min | Kd (hANGPTL3(17-460)-His [2]): 1.35 nM | koff (hANGPTL3(17-460)-His [2]): 0.000464 s⁻¹ | kon (hANGPTL3(17-460)-His [2]): 344000 M⁻¹ s⁻¹ | t1/2 (hANGPTL3(17-460)-His [2]): 25 min | Kd (hANGPTL3(17-460)-His [3]): 0.67 nM | koff (hANGPTL3(17-460)-His [3]): 0.000402 s⁻¹ | kon (hANGPTL3(17-460)-His [3]): 599000 M⁻¹ s⁻¹ | t1/2 (hANGPTL3(17-460)-His [3]): 28.8 min | Kd (MfANGPTL3(17-170)-mmH [4]): 0.37 nM | koff (MfANGPTL3(17-170)-mmH [4]): 0.000538 s⁻¹ | kon (MfANGPTL3(17-170)-mmH [4]): 1.45e+06 M⁻¹ s⁻¹ | t1/2 (MfANGPTL3(17-170)-mmH [4]): 21.5 min | Kd (hANGPTL3(17-170)-His [5]): 1.09 nM | koff (hANGPTL3(17-170)-His [5]): 0.0011 s⁻¹ | kon (hANGPTL3(17-170)-His [5]): 1e+06 M⁻¹ s⁻¹ | t1/2 (hANGPTL3(17-170)-His [5]): 10.5 min | IC50, LPL bioassay, 80 nM constant hANGPTL3(17-169)-mFc (hANGPTL3(17-169)-mFc [6]): 33 nM | IC50, LPL bioassay, 500 nM constant mANGPTL3(17-240)-His (mANGPTL3(17-240)-His): 64 nM | Kd (hANGPTL3(17-460)-His [7]): 227 nM | koff (hANGPTL3(17-460)-His [7]): 0.0107 s⁻¹ | kon (hANGPTL3(17-460)-His [7]): 47100 M⁻¹ s⁻¹ | t1/2 (hANGPTL3(17-460)-His [7]): 1.1 min | Kd (MfANGPTL3(17-170)-mmH [8]): 18.8 nM | koff (MfANGPTL3(17-170)-mmH [8]): 0.00521 s⁻¹ | kon (MfANGPTL3(17-170)-mmH [8]): 278000 M⁻¹ s⁻¹ | t1/2 (MfANGPTL3(17-170)-mmH [8]): 2.2 min | Kd (hANGPTL3(17-170)-His [9]): 26.7 nM | koff (hANGPTL3(17-170)-His [9]): 0.0324 s⁻¹ | kon (hANGPTL3(17-170)-His [9]): 1.22e+06 M⁻¹ s⁻¹ | t1/2 (hANGPTL3(17-170)-His [9]): 0.4 min
B1: H4H1276S (antibody, IgG4, V domains shown)
VH: EVQLVESGGGVIQPGGSLRLSCAASGFTFDDYAMNWVRQGPGKGLEWVSAISGDGGSTYYADSVKGRFTISRDNSKNSLYLQMNSLRAEDTAFFYCAKDLRNTIFGVVIPDAFDIWGQGTMVTVSS
VL: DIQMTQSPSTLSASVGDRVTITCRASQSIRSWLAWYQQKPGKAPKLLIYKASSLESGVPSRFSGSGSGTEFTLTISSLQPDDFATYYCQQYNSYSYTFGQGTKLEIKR
